Data reported in the supplement of paper PMC10567573.

B1: TOR1AIP2 (parent)
chain: SPGHSSAGQEGEDTLRRRLLAPEA

Variants of: B1
Assay: protein stability index of a GFP-peptide fusion (GPS, HEK-293T) (PSI 1-6); higher = more stable
Details: c terminus: a fixed tail appended
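Note: lentivirally expressed fusions sorted by FACS into six bins by GFP to DsRed ratio, PSI derived from sequencing read proportions per bin multiplied by bin number.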

Protein stability index of substitutions, site by site:
L19: Q 5.33 | N 5.34 | Y 4.86 | D 5.35 | F 4.73 | T 5.55 | H 5.52 | W 4.3 | C 4.99 | A 5.4 | P 5.29 | S 5.24 | E 5.46 | K 5.54 | G 5.45 | M 3.39 | I 3.39 | R 4.89 | V 4.9
A21: C 3.31 | H 5.26 | I 4.51 | E 5.23 | K 4.89 | M 4.19 | D 5.37 | G 5.31 | L 4.58 | F 4.71
R16: S 5.63 | Y 4.44 | T 5.04 | D 5.68 | P 4.9 | A 5.37 | L 4.61 | C 5.14 | V 5.51 | M 4.6 | F 4.71 | W 3.52 | E 5.46 | N 5.23 | G 5.41 | I 5.06 | H 5.38 | K 4.79 | Q 5.34
L20: C 5.49 | A 5.64 | H 5.29 | Q 5.63 | W 4.73 | D 4.7 | Y 4.51 | T 5.33 | M 5.01 | R 5.26 | V 5.21 | K 5.38 | F 3.94 | G 5.54 | P 5.15 | S 4.95 | I 4.94 | N 5.25 | E 4.9
T14: K 4.94 | Y 4.2 | W 4.5 | D 4.18 | H 4.33 | I 4.42 | F 4.39 | V 3.97 | L 4.84 | R 4.65 | P 4.33 | N 3.63 | Q 4.11 | A 4.06 | G 4.41 | C 2.67 | M 4.34 | S 3.08 | E 4.4
R18: I 3.07 | M 3.29 | S 5.01 | H 4.6 | Y 2.94 | T 4.58 | A 4.8 | L 2.99 | C 4.4 | D 4.89 | F 2.84 | W 2.51 | G 5.1 | V 4.14 | P 5.5 | K 4.83 | Q 3.89 | E 5.45 | N 4.98
D13: G 4.1 | V 4.15 | Q 4.09 | R 3.32 | K 4.52 | E 4.73 | S 3.67 | C 4.05 | H 4.31 | W 2.96 | N 4.27 | L 3.77 | M 3.06 | Y 2.8 | I 3.88 | F 3.02 | A 3.19 | P 4.53 | T 3.65
E12: T 3.6 | Y 3.22 | V 3.22 | W 3.19 | S 3.3
R17: G 5 | E 4.42 | S 4.71 | Q 4.37 | Y 2.48 | A 4.63 | L 3.31 | I 3.81 | K 4.76 | P 5.04 | C 4.51 | T 4.58 | D 5.46 | N 4.67 | V 3.9 | F 2.09 | H 3.85 | M 3.54 | W 2.36
L15: C 3.98 | M 4.79 | D 5.7 | T 5.31 | H 5.13 | N 5.49 | G 5.44 | K 4.96 | Q 4.98 | R 5.01 | I 4.53 | A 5.47 | W 3.92 | S 5.16 | E 5.35 | V 4.93 | Y 4.89 | P 5.23 | F 4.3
